B1: LKB1 LFa peptide WT [human] / purified TBC1D23 PH domain (545–684) [human] (parent complex)
chain 1: GADEDEDLFDIEDDIIYTQD
chain 2: YDTDEIDSSSMSDDDRKEVVNIQTWINKPDVKHHFPCKEVKESGHMFPSHLLVTATHMYCLREIVSRKGLAYIQSRQALNSVVKITSKKKHPELITFKYGNSSASGIEILAIERYLIPNAGDATKAIKQQIMKVLDALES

Variants of: B1
Experiment: ITC; read off a plot

With chain 1 F9L as the variant, how does the Ka read?
Its Ka is ~4.6 10^4 M^-1.

With chain 1 F9A as the variant, how does the Ka read?
The Ka was ~5 10^4 M^-1.

— article PMC10899256 (2024)
